In patent publication US20050276799A1 (PDL BIOPHARMA, published 2005):
Numbering of substitutions follows the chain as printed. In names and notes the source's numbering stands. Read-outs that look alike come from different tables or passages of the source.

How the values were obtained:
[1] = molecular target: T1, recombinant, GPI-linked human FcRn on cell line NS0 HuFcRn (memb), clone 7-3 (human, UniProt P55899 24-297; P61769 21-119); experiment: pH-dependent binding and release FACS on NS0 cells expressing human FcRn (FIG. 15B)
T1 construct: Expressed from pDL208 on the surface of NS0 cells; also called human neonatal Fc receptor; not shown: human c-myc decapeptide flanked by linker peptides, then GPI linkage signal of human decay accelerating factor (vector p)

[2] = molecular target: T1, recombinant, GPI-linked human FcRn on …; experiment: IC50 of wild-type / IC50 of this antibody, same assay
[3] = molecular target: T2, recombinant, GPI-linked rhesus FcRn on cell line NS0 RhFcRn, clone R-3 (rhesus, UniProt H9Z6D2 24-297; Q6V7J5 21-119, GPI-linked); experiment: as above
T2 construct: Expressed from pDL410 on the surface of NS0 cells; not shown: human c-myc decapeptide flanked by linker peptides, then GPI linkage signal of human decay accelerating factor (vector p)

[4] = molecular target: T1, recombinant, GPI-linked human FcRn on …; experiment: as above; remark: listed apart in the source
[5] = molecular target: T2, recombinant, GPI-linked rhesus FcRn on …; experiment: as above; remark: listed apart in the source
[6] = molecular target: T1, recombinant, GPI-linked human FcRn on …; experiment: competition FACS vs biotinylated human IgG on NS0 cells expressing human FcRn, FBB pH 6.0
[7] = molecular target: T2, recombinant, GPI-linked rhesus FcRn on …; experiment: competition FACS vs biotinylated human IgG on NS0 cells expressing rhesus FcRn, FBB pH 6.0
[8] = molecular target: T1, recombinant, GPI-linked human FcRn on …; experiment: competition FACS vs biotinylated human IgG on NS0 cells expressing human FcRn, FBB pH 6.0; remark: listed apart in the source
[9] = molecular target: T2, recombinant, GPI-linked rhesus FcRn on …; experiment: competition FACS vs biotinylated human IgG on NS0 cells expressing rhesus FcRn, FBB pH 6.0; remark: listed apart in the source

B1: OST577-IgG1 T250D (antibody)
heavy: not shown
light: SYVLTQPPSVSVAPGQTARITCGGDNIGSKSVNWFQQKPGQAPVLVVYDDNERPSGISERFSGSNSGNTATLTISRVEAGDEADYYCQVWDSSSDHVVFGGGTKLTVLGQPKAAPSVTLFPPSSEELQANKATLVCLISDFYPGAVTVAWKADSSPVKAGVETTTPSKQSNNKYAASSYLSLTPEQWKSHRSYSCQVTHEGSTVEKTVAPTECS
B1: binds [1].

B2: Hu1D10-IgG3 wild-type (antibody)
heavy: QVQLQESGPGLVKPSETLSLTCTVSGFSLTNYGVHWVRQSPGKGLEWIGVKWSGGSTEYNAAFISRLTISKDTSKNQVSLKLNSLTAADTAVYYCARNDRYAMDYWGQGTLVTVSSASTKGPSVFPLAPCSRSTSGGTAALGCLVKDYFPEPVTVSWNSGALTSGVHTFPAVLQSSGLYSLSSVVTVPSSSLGTQTYTCNVNHKPSNTKVDKRVELKTPLGDTTHTCPRCPEPKSCDTPPPCPRCPEPKSCDTPPPCPRCPEPKSCDTPPPCPRCPAPELLGGPSVFLFPPKPKDTLMISRTPEVTCVVVDVSHEDPEVQFKWYVDGVEVHNAKTKLREEQYNSTFRVVSVLTVLHQDWLNGKEYKCKVSNKALPAPIEKTISKAKGQPREPQVYTLPPSREEMTKNQVSLTCLVKGFYPSDIAVEWESNGQPENNYNTTPPMLDSDGSFFLYSKLTVDKSRWQQGNIFSCSVMHEALHNRYTQKSLSLSPGK
light: DIQMTQSPSSLSASVGDRVTITCRASENIYSYLAWYQQKPGKAPKLLVSNAKTLAEGVPSRFSGSGSGKQFTLTISSLQPEDFATYYCQHHYGNSYPFGQGTKLEIKRTVAAPSVFIFPPSDEQLKSGTASVVCLLNNFYPREAKVQWKVDNALQSGNSQESVTEQDSKDSTYSLSSTLTLSKADYEKHKVYACEVTHQGLSSPVTKSFNRGEC
For B2, the “Relative Binding” value [2] was 1 ratio and the “Relative Binding” value [3] was 1 ratio.

B3: Hu1D10-IgG4 T250Q/M428L (antibody)
heavy: not shown
light: B2 light
B3 was tested, and the “Relative Binding” value [4] was 71 ratio, the “Relative Binding” value [5] was 77 ratio and the IC50 [6] was 1.07 µg/mL. It also gave an IC50 [7] of 1.27 µg/mL.

B4: Hu1D10-IgG3 M428L (antibody)
heavy: B2 heavy with M474L
light: B2 light
B4 was tested, and the “Relative Binding” value [2] was 6.3 ratio, the “Relative Binding” value [3] was 4.6 ratio and the IC50 [8] was 2.29 µg/mL. It also gave an IC50 [9] of 3.03 µg/mL.

B5: Hu1D10-IgG4 M428L (antibody)
heavy: not shown
light: B2 light
B5 was tested, and the “Relative Binding” value [4] was 15 ratio, the “Relative Binding” value [5] was 15 ratio and the IC50 [6] was 5.03 µg/mL. For the same binder, the IC50 [7] was 6.64 µg/mL.
